Test results reported in PMC2746283, “BtubA-BtubB Heterodimer Is an Essential Intermediate in Protofilament Assembly” (PLoS ONE, 2009).
Residue numbers refer to the chain shown, from its start. Names and notes keep the numbering of the source.

B1: BtubA-V179K (natural protein, P. dejongeii)
chain: MKVNNTIVVSIGQAGNQIAASFWKTVCLEHGIDPLTGQTAPGVAPRGNWSSFFSKLGESSSGSYVPRAIMVDLEPSVIDNVKATSGSLFNPANLISRTEGAGGNFAVGYLGAGREVLPEVMSRLDYEIDKCDNVGGIIVLHAIGGGTGSGFGALLIESLKEKYGEIPVLSCAVLPSPQKSSVVTEPYNTVFALNTLRRSADACLIFDNEALFDLAHRKWNIESPTVDDLNLLITEALAGITASMRFSGFLTVEITLRELLTNLVPQPSLHFLMCAFAPLTPPDRSKFEELGIEEMIKSLFDNGSVFAACSPMEGRFLSTAVLYRGIMEDKPLADAALAAMREKLPLTYWIPTAFKIGYVEQPGISHRKSMVLLANNTEIARVLDRICHNFDKLWQRKAFANWYLNEGMSEEQINVLRASAQELVQSYQVAEESGAKAKVQDSAGDTGMRAAAAGVSDDARGSMSLRDLVDRRR
B2: BtubA, wild type (natural protein, P. dejongeii)
chain: B1 chain with K179V
B3: BtubA-E258K (natural protein, P. dejongeii)
chain: B1 chain with K179V, E258K
B4: BtubB, wild type (natural protein)
chain: VREILSIHVGQCGNQIADSFWRLALREHGLTEAGTLKEGSNAAANSNMEVFFHKVRDGKYVPRAVLVDLEPGVIARIEGGDMSQLFDESSIVRKIPGAANNWARGYNVEGEKVIDQIMNVIDSAVEKTKGLQGFLMTHSIGGGSGSGLGSLILERLRQAYPKKRIFTFSVVPSPLISDSAVEPYNAILTLQRILDNADGAVLLDNEALFRIAKAKLNRSPNYMDLNNIIALIVSSVTASLRFPGKLNTDLSEFVTNLVPFPGNHFLTASFAPMRGAGQEGQVRTNFPDLARETFAQDNFTAAIDWQQGVYLAASALFRGDVKAKDVDENMATIRKSLNYASYMPASGGLKLGYAETAPEGFASSGLALVNHTGIAAVFERLIAQFDIMFDNHAYTHWYENAGVSRDMMAKARNQIATLAQSYRDAS
notes: BtubB, bacterial tubulin-like protein of Prosthecobacter; the species is printed only for BtubA (P. dejongeii); also called B-wt; BtubB WT; source: E. coli, purified as described previously [3], with an added Sephacryl HR-100 column step; not shown: His tag, N-terminal, kept
B5: BtubB-N100E (natural protein)
chain: B4 chain with N100E
notes: BtubB of Prosthecobacter (species printed only for BtubA: P. dejongeii) with the point mutation N100E; also called within-dimer mutant of BtubB; source: E. coli, purified as described previously [3], with an added Sephacryl HR-100 column step; not shown: His tag, N-terminal, kept
B6: BtubB-D249K (natural protein)
chain: B4 chain with D249K
notes: BtubB of Prosthecobacter (species printed only for BtubA: P. dejongeii) with the point mutation D249K; The running text twice calls it BtubA-D249K; also called between-dimer mutant on the bottom of BtubB; source: E. coli, purified as described previously [3], with an added Sephacryl HR-100 column step; not shown: His tag, N-terminal, kept

Experiments:
[1] = target: B6; experiment: cell-based or functional assay
[2] = target: B4; experiment: cell-based or functional assay
[3] = target: B5; experiment: cell-based or functional assay
[4] = target: B2; experiment: AUC; sedimentation equilibrium of BtubA + BtubB mixtures, 20°C, 10,000-14,000 rpm, HMK buffer (50 mM Hepes, 5 mM MgAc, 350 mM KAc, 1 mM EGTA, pH 7.7), no GTP; molar ratios 1:4 to 4:1, each protein 8 to 32 µM; global fit to a monomer-dimer model (HeteroAnalysis); details: both partners purified
[5] = target: B3; experiment: as above; details: both partners purified
[6] = target: B1; experiment: as above; details: both partners purified

Binder | GTPase activity of the 1:1 mixture, per BtubB (GTP regeneration, coupled NADH assay, ∼29°C) [1] [GTP min^−1 Btub^−1] | GTPase activity of the 1:1 mixture, per BtubB (GTP regeneration, coupled NADH assay, ∼29°C) [2] [GTP min^−1 Btub^−1] | other results
B1 | 0.079 | 0.072 | 
B2 | 0.077 |  | 
B3 |  | 0.088 | GTPase activity of the 1:1 mixture, per BtubB (GTP regeneration, coupled NADH assay, ∼29°C) [3]: 0.098 GTP min^−1 Btub^−1
B4 |  |  | Kd [4]: 7.3 µM
B5 |  |  | Kd [5]: 61 µM
B6 |  |  | Kd [6]: 3.2 µM
